Test results from PMC9482650, “Quantitative fragmentomics allow affinity mapping of interactomes” (Nature Communications, 2022).
Values belong to the binder of their own block, whether it stands above or below them.

Key:
Assay in all cases: holdup assay
Design in all cases: key: below the threshold = too weak to quantify, mostly under pKd 3.1 to 4
Settings in all cases: plain residues with an end cap or a label only (N-terminal biotin on a linker: ado-ado)
[1] = molecular target: AHNAK1, Q09666
Chain of AHNAK1, Q09666 (Q09666 4-100): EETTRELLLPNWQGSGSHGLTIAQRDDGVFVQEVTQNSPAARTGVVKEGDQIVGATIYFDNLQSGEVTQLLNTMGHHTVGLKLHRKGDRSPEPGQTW

[2] = molecular target: T1, APBA2_1, Q99767
T1 sequence (Q99767 563-664, limits assumed, looked up): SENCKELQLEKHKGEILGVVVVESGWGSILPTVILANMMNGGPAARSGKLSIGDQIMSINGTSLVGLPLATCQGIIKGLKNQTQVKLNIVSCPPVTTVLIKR

[3] = molecular target: T2, APBA2_2, Q99767
T2 sequence (Q99767 654-744, limits assumed, looked up): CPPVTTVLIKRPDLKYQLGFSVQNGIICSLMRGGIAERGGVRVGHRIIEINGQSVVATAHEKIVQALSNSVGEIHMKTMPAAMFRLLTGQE

[4] = molecular target: ARHGEF12, Q9NZN5-2
Chain of ARHGEF12, Q9NZN5-2 (Q9NZN5 other isoform, or with tags, fused parts or gaps): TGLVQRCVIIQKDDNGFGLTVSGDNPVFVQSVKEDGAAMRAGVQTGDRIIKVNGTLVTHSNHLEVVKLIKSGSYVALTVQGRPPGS

[5] = molecular target: T3, CARD11, Q9BXL7
T3 sequence (Q9BXL7 662-765, limits assumed, looked up): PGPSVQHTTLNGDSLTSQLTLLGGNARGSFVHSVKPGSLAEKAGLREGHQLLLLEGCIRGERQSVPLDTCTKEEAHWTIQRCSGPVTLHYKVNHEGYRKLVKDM

[6] = molecular target: T4, DVL3, Q92997
T4 sequence (Q92997 244-331, limits assumed, looked up): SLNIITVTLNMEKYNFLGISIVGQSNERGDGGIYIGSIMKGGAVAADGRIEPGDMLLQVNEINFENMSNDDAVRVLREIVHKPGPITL

[7] = molecular target: T5, FRMPD1, Q5SYB0
T5 sequence (Q5SYB0 52-145, limits assumed, looked up): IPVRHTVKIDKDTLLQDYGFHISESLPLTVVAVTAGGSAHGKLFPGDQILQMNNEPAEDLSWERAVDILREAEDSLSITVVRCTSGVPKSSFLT

[8] = molecular target: T6, GRIP1_7, Q9Y3R0
T6 sequence (Q9Y3R0 999-1096, limits assumed, looked up): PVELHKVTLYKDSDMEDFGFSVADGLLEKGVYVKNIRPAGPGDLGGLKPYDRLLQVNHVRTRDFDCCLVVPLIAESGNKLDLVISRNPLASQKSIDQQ

[9] = molecular target: GRIP2_3, Q9C0E4
Chain of GRIP2_3, Q9C0E4 (Q9C0E4 238-339): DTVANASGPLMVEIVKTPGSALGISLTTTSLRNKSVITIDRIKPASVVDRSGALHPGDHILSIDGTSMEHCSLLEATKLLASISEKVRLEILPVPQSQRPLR

[10] = molecular target: T7, HTRA4, P83105
T7 sequence (P83105 378-476, limits assumed, looked up): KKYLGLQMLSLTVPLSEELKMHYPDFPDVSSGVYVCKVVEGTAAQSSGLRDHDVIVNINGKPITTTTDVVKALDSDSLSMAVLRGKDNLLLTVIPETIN

[11] = molecular target: Inadl_3, Q8NI35
Chain of Inadl_3, Q8NI35 (Q8NI35 359-469): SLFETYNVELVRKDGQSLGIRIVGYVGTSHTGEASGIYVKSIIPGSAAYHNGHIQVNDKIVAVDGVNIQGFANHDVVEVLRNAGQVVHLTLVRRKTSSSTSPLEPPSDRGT

[12] = molecular target: LIMK2, P53671
Chain of LIMK2, P53671 (P53671 143-248): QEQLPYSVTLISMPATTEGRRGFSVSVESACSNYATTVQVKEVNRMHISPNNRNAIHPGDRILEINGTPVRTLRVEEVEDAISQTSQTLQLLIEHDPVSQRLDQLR

[13] = molecular target: T8, LNX2_2, Q8N448
T8 sequence (Q8N448 334-432, limits assumed, looked up): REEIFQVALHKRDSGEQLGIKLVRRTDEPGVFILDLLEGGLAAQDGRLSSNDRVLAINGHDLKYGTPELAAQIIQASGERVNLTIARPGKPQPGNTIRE

[14] = molecular target: MAST2, Q6P0Q8
Chain of MAST2, Q6P0Q8 (Q6P0Q8 1099-1202): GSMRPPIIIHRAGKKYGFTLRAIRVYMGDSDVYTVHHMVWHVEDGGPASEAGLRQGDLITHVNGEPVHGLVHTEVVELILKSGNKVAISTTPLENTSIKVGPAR

[15] = molecular target: T9, MPDZ_12, O75970
T9 sequence (O75970 1857-1958, limits assumed, looked up): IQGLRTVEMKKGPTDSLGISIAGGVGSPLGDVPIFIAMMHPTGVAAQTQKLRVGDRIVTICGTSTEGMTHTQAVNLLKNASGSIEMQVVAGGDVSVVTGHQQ

[16] = molecular target: T10, MPP2, Q14168
T10 sequence (Q14168 180-250, limits assumed, looked up): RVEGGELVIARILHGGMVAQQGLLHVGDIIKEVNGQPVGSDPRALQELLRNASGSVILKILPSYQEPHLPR

[17] = molecular target: T11, MPP7, Q5T2T1
T11 sequence (Q5T2T1 134-230, limits assumed, looked up): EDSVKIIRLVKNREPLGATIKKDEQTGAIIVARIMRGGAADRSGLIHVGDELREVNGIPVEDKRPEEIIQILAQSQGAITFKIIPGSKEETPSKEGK

[18] = molecular target: T12, NHERF3_3, Q5T2W1
T12 sequence (Q5T2W1 238-333, limits assumed, looked up): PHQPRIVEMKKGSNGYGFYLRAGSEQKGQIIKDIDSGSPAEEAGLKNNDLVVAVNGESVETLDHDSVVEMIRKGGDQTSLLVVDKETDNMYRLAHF

[19] = molecular target: T13, PDZD7_3, Q9H5P4
T13 sequence (Q9H5P4 857-944, limits assumed, looked up): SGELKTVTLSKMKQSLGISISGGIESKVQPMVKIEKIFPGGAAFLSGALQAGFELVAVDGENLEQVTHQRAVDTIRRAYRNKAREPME

[20] = molecular target: SCRIB_1, Q14160
Chain of SCRIB_1, Q14160 (Q14160 718-814): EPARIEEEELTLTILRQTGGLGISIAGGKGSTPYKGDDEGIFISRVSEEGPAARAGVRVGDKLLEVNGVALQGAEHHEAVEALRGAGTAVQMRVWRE

[21] = molecular target: T14, SNTG1, Q9NSN8
T14 sequence (Q9NSN8 52-150, limits assumed, looked up): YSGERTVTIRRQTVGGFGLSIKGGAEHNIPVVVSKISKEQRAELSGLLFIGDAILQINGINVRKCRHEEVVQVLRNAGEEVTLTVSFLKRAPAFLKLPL

[22] = molecular target: T15, TIAM2, Q8IVF5
T15 sequence (Q8IVF5 885-986, limits assumed, looked up): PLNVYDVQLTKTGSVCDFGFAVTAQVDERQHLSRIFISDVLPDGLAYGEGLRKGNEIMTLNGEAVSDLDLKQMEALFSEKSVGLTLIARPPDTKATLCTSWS

[23] = molecular target: TJP1_2, Q07157
Chain of TJP1_2, Q07157 (Q07157 181-274): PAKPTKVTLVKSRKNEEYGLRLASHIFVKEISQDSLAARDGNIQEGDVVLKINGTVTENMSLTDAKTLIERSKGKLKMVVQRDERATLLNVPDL

B1: CXCR1, P25024 (peptide)
chain: SSSVNVSSNL
pKd [1]: below the threshold
pKd [2]: below the threshold
pKd [3]: below the threshold
pKd [4]: 4.24
pKd [5]: below the threshold
pKd [6]: below the threshold
pKd [7]: below the threshold
pKd [8]: below the threshold
pKd [9]: below the threshold
pKd [10]: 3.89
pKd [11]: below the threshold
pKd [12]: below the threshold
pKd [13]: below the threshold
pKd [14]: 5.13
pKd [15]: below the threshold
pKd [16]: below the threshold
pKd [17]: below the threshold
pKd [18]: below the threshold
pKd [19]: below the threshold
pKd [20]: below the threshold
pKd [21]: below the threshold
pKd [22]: below the threshold
pKd [23]: below the threshold

B3: CTNND2, Q9UQB3 (peptide)
chain: HYPASPDSWV
pKd [1]: below the threshold
pKd [2]: below the threshold
pKd [3]: below the threshold
pKd [4]: below the threshold
pKd [5]: below the threshold
pKd [6]: 4.04
pKd [7]: below the threshold
pKd [8]: 3.75
pKd [9]: below the threshold
pKd [10]: 4.06
pKd [11]: below the threshold
pKd [12]: below the threshold
pKd [13]: 4.72
pKd [14]: 4.17
pKd [15]: 4.65
pKd [16]: below the threshold
pKd [17]: below the threshold
pKd [18]: below the threshold
pKd [19]: 4.3
pKd [20]: 4.06
pKd [21]: 4.64
pKd [22]: below the threshold
pKd [23]: 4.19

B4: PRKN, O60260 (peptide)
chain: VCMGDHWFDV
pKd [1]: below the threshold
pKd [2]: below the threshold
pKd [3]: below the threshold
pKd [4]: below the threshold
pKd [5]: below the threshold
pKd [6]: 3.59
pKd [7]: below the threshold
pKd [8]: 3.56
pKd [9]: below the threshold
pKd [10]: 3.98
pKd [11]: 4.9
pKd [12]: below the threshold
pKd [13]: 4.57
pKd [14]: 4.85
pKd [15]: below the threshold
pKd [16]: below the threshold
pKd [17]: 4.85
pKd [18]: below the threshold
pKd [19]: below the threshold
pKd [20]: 3.55
pKd [21]: 3.81
pKd [22]: below the threshold
pKd [23]: below the threshold

B5: ATRNL1, Q5VV63 (peptide)
chain: HLSTRQGTCV
pKd [1]: below the threshold
pKd [2]: below the threshold
pKd [3]: below the threshold
pKd [4]: 3.51
pKd [5]: below the threshold
pKd [6]: below the threshold
pKd [7]: below the threshold
pKd [8]: below the threshold
pKd [9]: below the threshold
pKd [10]: 4.33
pKd [11]: below the threshold
pKd [12]: below the threshold
pKd [13]: 5.01
pKd [14]: 4.94
pKd [15]: 3.67
pKd [16]: below the threshold
pKd [17]: below the threshold
pKd [18]: below the threshold
pKd [19]: 4.2
pKd [20]: 3.66
pKd [21]: below the threshold
pKd [22]: below the threshold
pKd [23]: below the threshold

Next, values leading:

pKd [1]: below the threshold
pKd [2]: below the threshold
pKd [3]: below the threshold
pKd [4]: 3.61
pKd [5]: below the threshold
pKd [6]: below the threshold
pKd [7]: below the threshold
pKd [8]: below the threshold
pKd [9]: below the threshold
pKd [10]: below the threshold
pKd [11]: 4.7
pKd [12]: below the threshold
pKd [13]: below the threshold
pKd [14]: 5.68
pKd [15]: below the threshold
pKd [16]: below the threshold
pKd [17]: below the threshold
pKd [18]: below the threshold
pKd [19]: 4.45
pKd [20]: 3.62
pKd [21]: below the threshold
pKd [22]: below the threshold
pKd [23]: below the threshold
B2: PTH1R, Q03431 (peptide)
chain: LLQEEWETVM

pKd [1]: below the threshold
pKd [2]: below the threshold
pKd [3]: below the threshold
pKd [4]: below the threshold
pKd [5]: below the threshold
pKd [6]: below the threshold
pKd [7]: below the threshold
pKd [8]: below the threshold
pKd [9]: below the threshold
pKd [10]: below the threshold
pKd [11]: below the threshold
pKd [12]: below the threshold
pKd [13]: below the threshold
pKd [14]: 5.56
pKd [15]: below the threshold
pKd [16]: below the threshold
pKd [17]: below the threshold
pKd [18]: below the threshold
pKd [19]: below the threshold
pKd [20]: 4.14
pKd [21]: below the threshold
pKd [22]: below the threshold
pKd [23]: below the threshold
B6: SLC5A12, Q1EHB4 (peptide)
chain: NNMAFETTHF
